# Values of other authors, collected in US20170128542A1 (Albireo Pharma, Inc., priority 2015, published 2017).
# Assays:
# [1] = not given; remark: listed apart in the source
substance,measurement,setting,value
glucagon,Onset of action after injection,,5 to 20 min
same,Glucagon decomposed into degradation products,"[1]; acidic solution (pH 2-4), within 24 hours at 37° C.",5-70%
same,Aggregation in aqueous solutions of pH 3 or less,"[1]; aqueous solution, pH 3 or less",aggregate to form a gel within an hour
